We go through 125 sequences from the supplement of paper PMC9112550, “Optimization of the antimicrobial peptide Bac7 by deep mutational scanning” (BMC Biology, 2022).

The subject of the data set is Escherichia coli TOP10. Nature of the data set: shrunken log2 fold change of peptide-encoding DNA abundance (4.5 h post-induction vs induction); higher = less antimicrobial activity (less host growth inhibition). Conditions: time post-induction: 4.5 h; library: site-saturation at positions 5, 18, 19, 20.
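Further: peptides expressed intracellularly from a pBAD plasmid library in pooled LB shake-flask culture, induced with 0.3% L-arabinose, DNA abundance read by NGS, three biological replicates, DESeq2 with apeglm shrinkage.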

Turning to RRIRFRPPRLPRPRPRPDHNPRP, the “shrunken log2 fold change” value is -0.911.

As for RRIRHRPPRLPRPRPRPLPSPRP, the “shrunken log2 fold change” value came to 0.393.

On to RRIRPRPPRLPRPRPRPCLCPRP, for which the “shrunken log2 fold change” value is -0.222.

On to RRIRLRPPRLPRPRPRPRHDPRP, for which the “shrunken log2 fold change” value was 0.0303.

Take RRIRRRPPRLPRPRPRPECMPRP: the “shrunken log2 fold change” value came out at 0.921.

RRIRKRPPRLPRPRPRPKLWPRP: the “shrunken log2 fold change” value was 0.656.

As for RRIRQRPPRLPRPRPRPWWHPRP, the “shrunken log2 fold change” value was 0.00797.

For the sequence RRIRERPPRLPRPRPRPPPFPRP, the “shrunken log2 fold change” value is 0.313.

In the case of RRIRERPPRLPRPRPRPTSDPRP, the “shrunken log2 fold change” value is -0.0201.

In the case of RRIRWRPPRLPRPRPRPLWTPRP, the “shrunken log2 fold change” value came out at 0.0621.

Turning to RRIRRRPPRLPRPRPRPLSHPRP, the “shrunken log2 fold change” value stood at 0.0117.

On to RRIRNRPPRLPRPRPRPPIKPRP, for which the “shrunken log2 fold change” value is -0.279.

In the case of RRIRARPPRLPRPRPRPHERPRP, the “shrunken log2 fold change” value amounted to 0.0956.

With RRIRHRPPRLPRPRPRPCWEPRP, the “shrunken log2 fold change” value was found to be 0.153.

For RRIRRRPPRLPRPRPRPKVNPRP, the “shrunken log2 fold change” value was determined as 0.468.

As to RRIRLRPPRLPRPRPRPKGIPRP, the “shrunken log2 fold change” value was -0.0776.

For the sequence RRIRSRPPRLPRPRPRPKSPPRP, the “shrunken log2 fold change” value was found to be 0.291.

For the sequence RRIRPRPPRLPRPRPRPTAVPRP, the “shrunken log2 fold change” value amounted to 0.362.

Consider RRIRRRPPRLPRPRPRPWYKPRP, for which the “shrunken log2 fold change” value was -0.371.

Take RRIRIRPPRLPRPRPRPWDLPRP: the “shrunken log2 fold change” value was -0.119.

Regarding RRIRWRPPRLPRPRPRPNHDPRP, the “shrunken log2 fold change” value is -0.193.

With RRIRIRPPRLPRPRPRPKKRPRP, the “shrunken log2 fold change” value was -0.169.

In the case of RRIRMRPPRLPRPRPRPIIDPRP, the “shrunken log2 fold change” value is -0.399.

Turning to RRIRERPPRLPRPRPRPTMIPRP, the “shrunken log2 fold change” value was -0.597.

Consider RRIRTRPPRLPRPRPRPWFEPRP, for which the “shrunken log2 fold change” value came out at 0.647.

For RRIRGRPPRLPRPRPRPQNLPRP, the “shrunken log2 fold change” value was -0.34.

On to RRIRKRPPRLPRPRPRPHPVPRP, for which the “shrunken log2 fold change” value was found to be 0.185.

For RRIRIRPPRLPRPRPRPPYMPRP, the “shrunken log2 fold change” value is -1.19.

Take RRIRGRPPRLPRPRPRPREIPRP: the “shrunken log2 fold change” value was found to be 1.1.

With RRIRRRPPRLPRPRPRPHLMPRP, the “shrunken log2 fold change” value is 0.226.

Turning to RRIRTRPPRLPRPRPRPGQHPRP, the “shrunken log2 fold change” value amounted to 0.351.

For the sequence RRIRQRPPRLPRPRPRPATRPRP, the “shrunken log2 fold change” value was 0.616.

Take RRIRERPPRLPRPRPRPETLPRP: the “shrunken log2 fold change” value was -0.0176.

For the sequence RRIRCRPPRLPRPRPRPIFHPRP, the “shrunken log2 fold change” value was -0.333.

Regarding RRIRARPPRLPRPRPRPGPIPRP, the “shrunken log2 fold change” value was found to be 0.341.

For RRIRNRPPRLPRPRPRPTWVPRP, the “shrunken log2 fold change” value came out at 0.0257.

RRIRYRPPRLPRPRPRPGLKPRP: the “shrunken log2 fold change” value was -0.0239.

RRIRKRPPRLPRPRPRPWNFPRP: the “shrunken log2 fold change” value was -0.162.

As for RRIRTRPPRLPRPRPRPPKMPRP, the “shrunken log2 fold change” value came out at 0.18.

RRIRIRPPRLPRPRPRPNYHPRP: the “shrunken log2 fold change” value is -0.733.

Turning to RRIRVRPPRLPRPRPRPSSSPRP, the “shrunken log2 fold change” value was -0.113.

Take RRIRGRPPRLPRPRPRPFGLPRP: the “shrunken log2 fold change” value is -0.0119.

On to RRIRIRPPRLPRPRPRPLMYPRP, for which the “shrunken log2 fold change” value was -0.513.

Consider RRIRKRPPRLPRPRPRPVGNPRP, for which the “shrunken log2 fold change” value was 0.0255.

Regarding RRIRIRPPRLPRPRPRPQTQPRP, the “shrunken log2 fold change” value was -0.244.

Consider RRIRVRPPRLPRPRPRPENEPRP, for which the “shrunken log2 fold change” value is -0.0631.

Regarding RRIRGRPPRLPRPRPRPLMTPRP, the “shrunken log2 fold change” value was found to be 2.81.

On to RRIRWRPPRLPRPRPRPEHGPRP, for which the “shrunken log2 fold change” value is 0.265.

For RRIRGRPPRLPRPRPRPKITPRP, the “shrunken log2 fold change” value came out at 0.413.

Turning to RRIRFRPPRLPRPRPRPTCMPRP, the “shrunken log2 fold change” value was -0.0546.

Take RRIRWRPPRLPRPRPRPKLYPRP: the “shrunken log2 fold change” value was found to be 0.113.

For RRIRYRPPRLPRPRPRPLPMPRP, the “shrunken log2 fold change” value is -0.624.

On to RRIRYRPPRLPRPRPRPGCFPRP, for which the “shrunken log2 fold change” value is -0.349.

As for RRIRPRPPRLPRPRPRPSDDPRP, the “shrunken log2 fold change” value is -0.0663.

As for RRIRCRPPRLPRPRPRPTDYPRP, the “shrunken log2 fold change” value was 1.93.

In the case of RRIRMRPPRLPRPRPRPTTDPRP, the “shrunken log2 fold change” value came to 0.815.

Consider RRIRLRPPRLPRPRPRPHCEPRP, for which the “shrunken log2 fold change” value was -0.00711.

Regarding RRIRFRPPRLPRPRPRPRGVPRP, the “shrunken log2 fold change” value amounted to 0.0819.

As to RRIRHRPPRLPRPRPRPDLKPRP, the “shrunken log2 fold change” value was -0.0314.

For RRIRMRPPRLPRPRPRPIWWPRP, the “shrunken log2 fold change” value was 0.124.

Regarding RRIRRRPPRLPRPRPRPYDEPRP, the “shrunken log2 fold change” value is -0.302.

Take RRIRDRPPRLPRPRPRPQHSPRP: the “shrunken log2 fold change” value is -0.312.

Turning to RRIRNRPPRLPRPRPRPYSPPRP, the “shrunken log2 fold change” value was -0.276.

For RRIRPRPPRLPRPRPRPTHIPRP, the “shrunken log2 fold change” value came to 0.0811.

RRIRSRPPRLPRPRPRPETSPRP: the “shrunken log2 fold change” value came out at 0.358.

On to RRIRERPPRLPRPRPRPGKYPRP, for which the “shrunken log2 fold change” value was -0.17.

As for RRIRRRPPRLPRPRPRPEYQPRP, the “shrunken log2 fold change” value was 0.119.

As to RRIRGRPPRLPRPRPRPYISPRP, the “shrunken log2 fold change” value was -0.325.

On to RRIRNRPPRLPRPRPRPFWAPRP, for which the “shrunken log2 fold change” value is 0.0267.

For the sequence RRIRFRPPRLPRPRPRPIVQPRP, the “shrunken log2 fold change” value came to 0.00873.

Consider RRIRWRPPRLPRPRPRPRAFPRP, for which the “shrunken log2 fold change” value came to 0.57.

For RRIRGRPPRLPRPRPRPCWVPRP, the “shrunken log2 fold change” value was -0.00887.

Turning to RRIRCRPPRLPRPRPRPQHEPRP, the “shrunken log2 fold change” value turned out to be 0.0354.

As for RRIRWRPPRLPRPRPRPVESPRP, the “shrunken log2 fold change” value was found to be 0.0647.

With RRIRMRPPRLPRPRPRPSQRPRP, the “shrunken log2 fold change” value came out at 0.158.

For RRIRERPPRLPRPRPRPSKDPRP, the “shrunken log2 fold change” value was -0.664.

Regarding RRIRQRPPRLPRPRPRPGCNPRP, the “shrunken log2 fold change” value is -0.0136.

Turning to RRIRNRPPRLPRPRPRPIAFPRP, the “shrunken log2 fold change” value is -0.111.

Turning to RRIRSRPPRLPRPRPRPARDPRP, the “shrunken log2 fold change” value turned out to be 0.407.

As to RRIRERPPRLPRPRPRPHAGPRP, the “shrunken log2 fold change” value was determined as 0.0727.

As for RRIRLRPPRLPRPRPRPHLYPRP, the “shrunken log2 fold change” value stood at 0.61.

Consider RRIRYRPPRLPRPRPRPPKGPRP, for which the “shrunken log2 fold change” value was -0.163.

Consider RRIRYRPPRLPRPRPRPYNTPRP, for which the “shrunken log2 fold change” value was -1.88.

Regarding RRIRIRPPRLPRPRPRPEFEPRP, the “shrunken log2 fold change” value is -0.0399.

In the case of RRIRYRPPRLPRPRPRPMRHPRP, the “shrunken log2 fold change” value is -0.0913.

With RRIRSRPPRLPRPRPRPLCPPRP, the “shrunken log2 fold change” value was -0.0602.

For RRIRNRPPRLPRPRPRPMKMPRP, the “shrunken log2 fold change” value came to 0.064.

RRIRMRPPRLPRPRPRPFVEPRP: the “shrunken log2 fold change” value is -0.0699.

Take RRIRWRPPRLPRPRPRPWEKPRP: the “shrunken log2 fold change” value was 0.624.

In the case of RRIRRRPPRLPRPRPRPHNVPRP, the “shrunken log2 fold change” value is -0.916.

Take RRIRRRPPRLPRPRPRPWVIPRP: the “shrunken log2 fold change” value is -0.125.

With RRIRPRPPRLPRPRPRPFVLPRP, the “shrunken log2 fold change” value was -0.352.

RRIRRRPPRLPRPRPRPCFEPRP: the “shrunken log2 fold change” value was determined as 0.0864.

As to RRIRPRPPRLPRPRPRPDALPRP, the “shrunken log2 fold change” value is 0.0315.

Turning to RRIRGRPPRLPRPRPRPACNPRP, the “shrunken log2 fold change” value was 0.415.

On to RRIRLRPPRLPRPRPRPGYDPRP, for which the “shrunken log2 fold change” value was -0.233.

RRIRDRPPRLPRPRPRPWETPRP: the “shrunken log2 fold change” value stood at 0.192.

As to RRIRHRPPRLPRPRPRPHEMPRP, the “shrunken log2 fold change” value was -0.257.

For the sequence RRIRARPPRLPRPRPRPENYPRP, the “shrunken log2 fold change” value was determined as 0.0453.

As to RRIRERPPRLPRPRPRPEIFPRP, the “shrunken log2 fold change” value was -0.00264.

RRIRMRPPRLPRPRPRPIAKPRP: the “shrunken log2 fold change” value is 0.494.

For RRIRGRPPRLPRPRPRPPYLPRP, the “shrunken log2 fold change” value was -0.0342.

On to RRIRKRPPRLPRPRPRPSFIPRP, for which the “shrunken log2 fold change” value is -0.262.

Consider RRIRGRPPRLPRPRPRPPSPPRP, for which the “shrunken log2 fold change” value is 1.01.

Take RRIRPRPPRLPRPRPRPKPQPRP: the “shrunken log2 fold change” value was found to be 0.397.

For the sequence RRIRRRPPRLPRPRPRPYCRPRP, the “shrunken log2 fold change” value is -0.503.

Turning to RRIRHRPPRLPRPRPRPMAMPRP, the “shrunken log2 fold change” value is 0.00505.

Turning to RRIRFRPPRLPRPRPRPLCKPRP, the “shrunken log2 fold change” value is 0.0214.

Regarding RRIRERPPRLPRPRPRPVLNPRP, the “shrunken log2 fold change” value is -0.54.

Regarding RRIRIRPPRLPRPRPRPTCPPRP, the “shrunken log2 fold change” value is 0.00857.

RRIRERPPRLPRPRPRPDFNPRP: the “shrunken log2 fold change” value was -0.175.

With RRIRPRPPRLPRPRPRPDTVPRP, the “shrunken log2 fold change” value is -0.207.

As to RRIRFRPPRLPRPRPRPATIPRP, the “shrunken log2 fold change” value is -0.506.

In the case of RRIRGRPPRLPRPRPRPKPEPRP, the “shrunken log2 fold change” value stood at 0.819.

With RRIRGRPPRLPRPRPRPDSRPRP, the “shrunken log2 fold change” value came to 0.122.

RRIRARPPRLPRPRPRPEYYPRP: the “shrunken log2 fold change” value is -0.059.

Take RRIRDRPPRLPRPRPRPIICPRP: the “shrunken log2 fold change” value is -0.0435.

On to RRIRNRPPRLPRPRPRPTFDPRP, for which the “shrunken log2 fold change” value turned out to be 0.0109.

Regarding RRIRCRPPRLPRPRPRPDPVPRP, the “shrunken log2 fold change” value stood at 0.205.

As for RRIRTRPPRLPRPRPRPGASPRP, the “shrunken log2 fold change” value turned out to be 0.156.

Take RRIRARPPRLPRPRPRPSQGPRP: the “shrunken log2 fold change” value is -0.168.

With RRIRLRPPRLPRPRPRPPAMPRP, the “shrunken log2 fold change” value stood at 0.42.

As for RRIRDRPPRLPRPRPRPRGHPRP, the “shrunken log2 fold change” value was found to be 0.321.

As to RRIRTRPPRLPRPRPRPMDFPRP, the “shrunken log2 fold change” value was 0.0159.

In the case of RRIRYRPPRLPRPRPRPCLDPRP, the “shrunken log2 fold change” value is -0.125.
